From the nanobody polyreactivity screen of Harvey et al. (2022)

Experiment: yeast display, Sf9 membrane polyspecificity reagent, FACS + sequencing; frameworks hold sequencing errors
In short: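 Polyreactivity labels are assigned by the sorting gate from which each nanobody was recovered. The gates were low and high (top ~1%), set on anti-HA fluorescence for expression and streptavidin fluorescence for reagent binding. Before sorting, galactose-induced (36–48 hours) yeast display cells were stained for 1 hour at 4 °C with 10% biotinylated, detergent-solubilized Sf9 membrane reagent.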

Sequence | polyreactivity (PSR sort gate)
QVQLLESGGGLVQAGGSLRLSCAASGRIFRAYAMGWYRQAPGKERELVAAISWRYGSTYYADSVKGRFTISRDNAKNTVYLQMNSVKPEDTAVYYCAAEYDWPGYDYWGQGTQVTVSS | high polyreactivity
QVQLLESGGGLVQAGGSLRLSCAASGRILRINTMGWYRQAPGKERELVAAISWSGGTTYYADSVKGRFTISRDNAKNTVYLQMNSLKPEDTAVYYCNKAIWYAEYDYWGQGTQVTVSS | low polyreactivity
QVQLLESGGGLVQAGGSLRLSCAASGRTFTRNAMGWYRQAPGKERELVAAISYRVGSTYYADSVKGRFTISRDNAKNTVYLQMNSLKPEDTAVYYCATGRGHSYGGDDYWGQGTQVTVSS | high polyreactivity
QVQLLESGGGLVQAGGSLRLSCAASGRTFYFYVMGWYRQAPGKERELVARISWSGGSTYYADSVKGRFTISRDNSKNTVYLQMNSLKPEDTAVYYCNTVDSIPIGSGLYYYWGQGTQVTVSS | low polyreactivity
QVQLLESGGGLVQAGGSLRLSCAASGRTSYIYSMGWYRKAPGKEREFVADITWSGGSTYYADSVKGRFTISRDNAKNTVYLQMNSLKPEDTAVYYCNADLLSWWGVEYYYWGQGTQVTVSS | high polyreactivity
QVQLLESGGGLVQAGGSLRLSCAASGSIFDYNAMGWYRQAPGNERELVADITISDDSTYYADSVKGRFTISRDNAKNTVNLQMNSRQPEDTAVYYCAADIKYYWYYYYWAYAYDYWGQGTQVTVSS | high polyreactivity
QVQLLESGGGLVQAGGSLRLSCAASGSIFGLYAMGWYRQAPGKERELVAALTWSSGNTYYADSVKGRFTISRDNAKNTVYLQMNSLKPEDTAVYYCSARVYRYGAMDYWGQGTQVTVSS | high polyreactivity
QVQLLESGGGLVQAGGSLRLSCAASGSIFLLNAMGWYRQAPGKERELVASISRGGVRTNYADSEKGRFTISRDNAKNTVYLQMISLKPEDTAVYYCAAGTRPFGYRRDYWGQGTQVTVSS | high polyreactivity
QVQLLESGGGLVQAGGSLRLSCAASGSIFTPNNMGWYRQAPGKESEFVAAITFSGGSTYYADSVKGRFTISRDNAKNTVYLQMNSLKPEDTSVYYCAAVYPTYDWYTPAYYYWGQGTQVTVSS | low polyreactivity
QVQLLESGGGLVQAGGSLRLSCAASGSIFTVYAMGWYRQAPGKERELVAAITGSGGRTYYADSVKGRFTISRDNAKNTVYLQRNSLKPEDTAVYYCAATTRPGYRYEGDYWGQGTQVTVSS | low polyreactivity
QVQLLESGGGLVQAGGSLRLSCAASGSIFVGYAMGWYRPAPGKERELVASITTPGGSTHYADSVKGRFTISRDNAKNTVYLQMNSLKPEDTAVYYCAADSLSNGVLQYLPGYDYWGQGTQVTVSS | low polyreactivity
QVQLLESGGGLVQAGGSLRLSCAASGSIFVKYDMGWYRQAPGKDRELVAAIRSGASTTYADSVKGRFTISRDNAKITVYLQMNSLKPEDTAVYYCAADQRGWGYTYGKGGDYWGQGTQVTVSS | low polyreactivity
QVQLLESGGGLVQAGGSLRLSCAASGSIIPYYAMGWYRQAPGKESELVAAITSGGGSTYYADSVKGRFTISRDNAMNSVYLQMNSLKPEDTAVYYCAAVLTSYYGGDYWGQGTQVTVSS | low polyreactivity
QVQLLESGGGLVQAGGSLRLSCAASGSILFTNAMGWYRQAPGKERELVAAISSGGSTYYADSVKGRFTFSRDNAKNTVYLQMNSLKPEDTAVYYSAADQLNVGREYVEYDYWGQGTQVTVSS | low polyreactivity
QVQLLESGGGLVQAGGSLRLSCAASGSILIKYAMGWYRQAPGKERELVATITSGGSTYYADSVKGRFTISRDNAKNTVYLQMNSLKPEDTAVYYCATGQYYYYGIVAFFELDYWGQGTQVTVSS | low polyreactivity
QVQLLESGGGLVQAGGSLRLSCAASGSTFCANAMGWYRQAPGKVWELVARITYSGGSTYYADSVKGRFTISRDNAKNTVYLQMNSLKPDDTAVYFCAADLPGKFDYWGQGTQVTVSS | low polyreactivity
QVQLLESGGGLVQAGGSLRLSCAASGSTFKKNAMGWYRQAPGKETELVAAISGIGTRTSYADSVKGRFTISRDNAKNTVYLQMNSLKPEDTAVYYCAARYYGFPSTLKYDYWGQGTQVTVSS | high polyreactivity
QVQLLESGGGLVQAGGSLRLSCAASGSTFLYNAMGWYRQAPGKERELVAGIRRSGGSTYYADSVKGRFTISRDNAMNTVYLQMNSLKPEDTAVYYCNTDRTLSYQYGGYDYWGQGTQVTVSS | low polyreactivity
QVQLLESGGGLVQAGGSLRLSCAASGSTFWWNTMGWYRQAPGKERELVADIRPSGGGTYYADSVKGRFTISRDNAKNTVYLPMHSLKPEATAVYYCNADPKWEMGSWGQGTQVTVSS | low polyreactivity
QVQLLESGGGLVQAGGSLRLSCASSGYINSYYTMGWYRHATGKERVLVASIRWAGGRTYYADSVKGRFTFSRDNAKITVYLQMNSLKPEDTAVYYCNVKSSRFLDVGRMEYWGQGTQVTVSS | high polyreactivity
QVQLLESGGGLVQAGGSLRLSSASSSFIFYSNDMGSYRQAPGKERELVAAISRRCGSTYYADSVKGRFTISRDNAKNTVFLQMNSLKPEDTAVYYCAARVGSGFDSWGQGTQVTVSS | high polyreactivity
QVQLLESGGGLVQAGGSLRLTCAASGFTFDLNAMGWYRQAPGKERELVAAISYSGDDTYYADSVKGRFTISRDNAKNTVYLQMNSLKPEDTAVYYCAADATWTYYQLYDYWGQGNQVTVSS | low polyreactivity

Sequence | polyreactivity (PSR sort gate)
QVQLLESGGGLVQAGGSLRLTCAASGITFQYYAMGWYRQAPGKERELVAAITSSGVSTYYADSVKGRFTISRDNAKNTVYLQMNSLKPEDTAVYYCNTVVRGWSSSAYDYWGQGTQVTVSS | low polyreactivity
QVQLLESGGGLVQAGGSLRLTCAASGRTFQYNAMGWYRQAPGKERELVGAISSTGGSTYYADSVKGRFTISRDNAKNTVYLQMNSLKPEDTAVYYCARQGRYTRGDYWGQGTQVTVSS | high polyreactivity
QVQLLESGGGLVQAGGTLRLSCAASGYTFAWYAMVWSRQAPGKERELVAAINNGGSTSYADSVKGRFTISRDNAKNTVYLQMNSLKREDTAVYYCAARPGAHPDRLDYWGQGTQVTVSS | low polyreactivity
QVQLLESGGGLVQAGRSLRLSCAPSGIIFRVYAMGWYRQAPGKERELVAAISSSGGNTYYADSVKGRFTISRDNAKNTVYLQLNSLKPEDTAVYYCAAPYGQLFTQGTWYEYWGQGTQVTVSS | low polyreactivity
QVQLLESGGGLVQARGSLRLSCAASGSIFTYYAMGWYRQAPGIEREFVAAISRRGGSTYYADSVKGRFTISRDNAKNTVYLQMNSLKAVDTAVYYCAKDPSFTRGYKEGGGYDYWGQGTQVTVSS | high polyreactivity
QVQLLESGGGLVQAVGSLRLSCAASGIIFWVNAMGWYRQAPGKERELFAAIRSDGSTKYADSVKGRFTISRDNAKNTVYLLMNSLKPEDTAHYYCAKRDYSYTWLRDYYYWGQGTQVTVSS | low polyreactivity
QVQLLESGGVLDQAGGSLRLTCAASGSIFFTNAMGWYRQAPGKERELVAAIRQSGGSTFYADSVKGRFTISRDNAKNTVYLQLNSLKPEDTAVFYCNADGRHKWQYSSYDYWGQGTQLTVSS | low polyreactivity
QVQLQDSGGGLVLAGGSLRLSCSASGNISVYGSMGWYRQAPGKEREFVATIDPGTNTNYADSVKDRFTISRDNAKNTVYLQMNSLKPEDTAVYYCAVEAGSDWPYRYWGQGTQVTVSS | low polyreactivity
QVQLQDSGGGLVQAGGSLRLSCAASGTISYRYRMGWYRQAPRKELELVAGIRFGSITYYADSVKGRFTISRDNAKNTVYLQMNSLKPEDIAVYYCAVYQKSYRFFPYWGQGTQVTVSS | high polyreactivity
QVQLQDSGGGLVQAGGSLRQSYAASGYIFPSLAMGWYRQAPGKEREFVAAIGRGSTNNYADSVKGRFTISRDNAKNTAYQQMNSLKPEDTAVYYCAAAASPLTRHLYWGQGTQVTVSS | low polyreactivity
QVQLQDSGGGLVQAVGSQRMSCAASGYIFYFQYMGWYRQAPGKEREFVAAISDGANTNYADSVKGRFTISRDNAKNTEYLQMYCLKPEDTAVYYCAVYADENYYYIYWGQGTQVTVSS | low polyreactivity
QVQLQECGGGLVQAGGSLRLSCAASGNIFDADIMGWYRQAPGKERELVASVTDGGSTNYADSVKGRFTISRDNAKITVYLQLNSLKPEDTAVYYCAAIVYPDILTDFDYDYDYFYWGQGTQVTVGS | low polyreactivity
QVQLQEGGGGLVQAGGSLRLSCAASGYISYGDVMGWYRQAPGEERELVASIGLDATTNYADSVKGRFTISRDNAKITVYLQMNSLKPEDTAVYYCAADVGSGVLCGYWGQGTQMTVSS | high polyreactivity
QVQLQEIGGCLVQAGDSHRLSCAASGNIFPFTDMGWNRQAQGKERELVAAINAGSTTYYADSVKGRFTISRDNAKITVYLQLISLKPEDTAVYYCAVYYLGSGTFCYWGQGPQVTVSS | high polyreactivity
QVQLQEIGGGLVQAGGSLRLSCAASGYISLAKTIGLSRQAPGKEREFVASIALGSSTYYTDSVKGSFTISRDNAKTTVYLQMNRLKPEDTAVYYCAARVGASYAHDYGGQGTQVTVSS | low polyreactivity
QVQLQENGGGLVQAGGSLRLSCAASGTILYSLGMGWYRQAPGKRREFVASITWGTTTNYAESVKGRFTISRDNAKNSVYPQMNSLKPEDTAVYYCAAPPFGDSSYHYWGQGTQVTVSS | low polyreactivity
QVQLQERAAWCRRAGSLRLSCAASGNISDYYFMGWYRQAPGKERELVAAIAPGSNTYYADSVKGRFTISRDNAKNTVYLQMNSLKPEDTAVCFCGANSTQYTWFDYWGQGTQVPVSS | low polyreactivity
QVQLQERGGGLMQAGGSQRLSCAASGSISYYSDMGWYRQAPGTEREFVAGIGYGTTTNYADSVKGRFTTSRDNAKNTVDLQMISMKPEDTAVYYCAAYQGNGYEFYYWGQGTQVTVRS | low polyreactivity
QVQLQERGGGLVQAGGSLRLSCAASCTIFRFRYMGWHRQAPGKERELVAGINGGTTTYYADSVIGRFTISRDNAKNTLYLQMNSLKPDDTAVYNCAAVASRLTYYDYWGQGTQVTVSS | low polyreactivity
QVQLQERGGGLVQAGGSLRLSCAASGNIFEADIMGWYHQAQGKDRELVASITDGGSTNYADSVKGRFTINRDNAKNKVSRQMNSLKPEDTALYYCAAYGNARLKEHYYWGQGTQVTVSS | high polyreactivity
QVQLQERGGVLVQAGGSLRLSCAASGTISYAPHMGWYRQATGKERELVAGITIGGTTYYADSVKGRFTISRDNAIHTVYLHMNSLCRGDTAVYFFAAHSEQYTPFYYWGQGTQLTVSS | low polyreactivity
